Measured values published in US20230192890A1.

Tests used:
[1] = target: full-length recombinant mouse PAD4 (mouse) (UniProt Q9Z183); test: ELISA, mouse PAD4 on plate, antibody 0.0039063 ug/mL
[2] = target: full-length recombinant mouse PAD4 (mouse) (UniProt Q9Z183); test: ELISA, mouse PAD4 on plate, antibody 0.0625 ug/mL
[3] = target: full-length recombinant mouse PAD4 (mouse) (UniProt Q9Z183); test: ELISA, mouse PAD4 on plate, antibody 0.0002441 ug/mL
[4] = target: full-length recombinant mouse PAD4 (mouse) (UniProt Q9Z183); test: ELISA, mouse PAD4 on plate, antibody 6.104E-05 ug/mL
[5] = target: full-length recombinant mouse PAD4 (mouse) (UniProt Q9Z183); test: ELISA, mouse PAD4 on plate, antibody 0.25 ug/mL
[6] = target: full-length recombinant mouse PAD4 (mouse) (UniProt Q9Z183); test: ELISA, mouse PAD4 on plate, antibody 0.0009766 ug/mL
[7] = target: full-length recombinant mouse PAD4 (mouse) (UniProt Q9Z183); test: ELISA, mouse PAD4 on plate, antibody 1 ug/mL
[8] = target: T1, Ala mutant SEQ ID NO: 42 (human); test: ELISA, peptide on plate (10 ug/mL)
T1 sequence (peptide): EENMDDQWMQDEMEIAY

[9] = target: T2, Ala mutant having 3-amino acid substitution, SEQ ID NO: 47 (human); test: ELISA, peptide on plate (10 ug/mL)
T2 sequence (peptide): EENMDDQWMAAAMEIGY

[10] = target: T3, Ala mutant SEQ ID NO: 30 (human); test: ELISA, peptide on plate (10 ug/mL)
T3 sequence (peptide): EENADDQWMQDEMEIGY

[11] = target: T4, Ala mutant having 3-amino acid substitution, SEQ ID NO: 49 (human); test: ELISA, peptide on plate (10 ug/mL)
T4 sequence (peptide): EENMDDQWMQDEMEIAA

[12] = target: T5, TA0096 (peptide antigen corresponding to positions 340 to 356 of PAD4) (human); test: ELISA, peptide on plate (10 ug/mL)
T5 sequence (peptide): EENMDDQWMQDEMEIGY

[13] = target: T6, Ala mutant SEQ ID NO: 32 (human); test: ELISA, peptide on plate (10 ug/mL)
T6 sequence (peptide): EENMDAQWMQDEMEIGY

[14] = target: T7, Ala mutant SEQ ID NO: 39 (human); test: ELISA, peptide on plate (10 ug/mL)
T7 sequence (peptide): EENMDDQWMQDEAEIGY

[15] = target: T8, Ala mutant SEQ ID NO: 40 (human); test: ELISA, peptide on plate (10 ug/mL)
T8 sequence (peptide): EENMDDQWMQDEMAIGY

[16] = target: T9, Ala mutant SEQ ID NO: 29 (human); test: ELISA, peptide on plate (10 ug/mL)
T9 sequence (peptide): EEAMDDQWMQDEMEIGY

[17] = target: T10, Ala mutant SEQ ID NO: 38 (human); test: ELISA, peptide on plate (10 ug/mL)
T10 sequence (peptide): EENMDDQWMQDAMEIGY

[18] = target: Ala mutant SEQ ID NO: 35 (human); test: ELISA, peptide on plate (10 ug/mL)
[19] = target: T11, Ala mutant SEQ ID NO: 37 (human); test: ELISA, peptide on plate (10 ug/mL)
T11 sequence (peptide): EENMDDQWMQAEMEIGY

[20] = target: T12, Ala mutant SEQ ID NO: 36 (human); test: ELISA, peptide on plate (10 ug/mL)
T12 sequence (peptide): EENMDDQWMADEMEIGY

[21] = target: T13, Ala mutant having 3-amino acid substitution, SEQ ID NO: 46 (human); test: ELISA, peptide on plate (10 ug/mL)
T13 sequence (peptide): EENMDDAAAQDEMEIGY

[22] = target: T14, Ala mutant SEQ ID NO: 41 (human); test: ELISA, peptide on plate (10 ug/mL)
T14 sequence (peptide): EENMDDQWMQDEMEAGY

[23] = target: T15, Ala mutant SEQ ID NO: 43 (human); test: ELISA, peptide on plate (10 ug/mL)
T15 sequence (peptide): EENMDDQWMQDEMEIGA

[24] = target: T16, Ala mutant having 3-amino acid substitution, SEQ ID NO: 48 (human); test: ELISA, peptide on plate (10 ug/mL)
T16 sequence (peptide): EENMDDQWMQDEAAAGY

[25] = target: T17, Ala mutant SEQ ID NO: 27 (human); test: ELISA, peptide on plate (10 ug/mL)
T17 sequence (peptide): AENMDDQWMQDEMEIGY

[26] = target: Ala mutant SEQ ID NO: 34 (human); test: ELISA, peptide on plate (10 ug/mL)
[27] = target: T18, Ala mutant SEQ ID NO: 33 (human); test: ELISA, peptide on plate (10 ug/mL)
T18 sequence (peptide): EENMDDAWMQDEMEIGY

[28] = target: T19, Ala mutant SEQ ID NO: 31 (human); test: ELISA, peptide on plate (10 ug/mL)
T19 sequence (peptide): EENMADQWMQDEMEIGY

[29] = target: T20, Ala mutant having 3-amino acid substitution, SEQ ID NO: 44 (human); test: ELISA, peptide on plate (10 ug/mL)
T20 sequence (peptide): AAAMDDQWMQDEMEIGY

[30] = target: T21, Ala mutant SEQ ID NO: 28 (human); test: ELISA, peptide on plate (10 ug/mL)
T21 sequence (peptide): EANMDDQWMQDEMEIGY

[31] = target: full-length recombinant mouse PAD4 (mouse) (UniProt Q9Z183); test: ELISA, mouse PAD4 on plate, antibody 0.015625 ug/mL

Chain of full-length recombinant mouse PAD4 (mouse) (Q9Z183 whole entry): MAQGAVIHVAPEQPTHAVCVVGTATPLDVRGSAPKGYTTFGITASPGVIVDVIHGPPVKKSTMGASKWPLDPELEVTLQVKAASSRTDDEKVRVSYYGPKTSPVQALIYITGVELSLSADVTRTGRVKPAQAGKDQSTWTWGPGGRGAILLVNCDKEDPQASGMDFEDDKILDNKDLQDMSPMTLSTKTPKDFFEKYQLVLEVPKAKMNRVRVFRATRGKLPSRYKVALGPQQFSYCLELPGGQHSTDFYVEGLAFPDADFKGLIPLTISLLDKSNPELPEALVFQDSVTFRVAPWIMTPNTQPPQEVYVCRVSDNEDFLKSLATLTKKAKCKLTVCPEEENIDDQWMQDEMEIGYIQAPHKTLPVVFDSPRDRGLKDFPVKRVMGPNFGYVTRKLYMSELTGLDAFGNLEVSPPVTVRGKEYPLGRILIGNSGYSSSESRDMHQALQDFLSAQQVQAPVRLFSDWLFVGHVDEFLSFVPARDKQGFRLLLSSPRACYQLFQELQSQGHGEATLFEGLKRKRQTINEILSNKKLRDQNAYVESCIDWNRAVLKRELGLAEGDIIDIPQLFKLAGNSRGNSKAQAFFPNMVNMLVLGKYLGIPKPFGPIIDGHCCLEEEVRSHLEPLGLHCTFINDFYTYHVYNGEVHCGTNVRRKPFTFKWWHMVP

anti-dinitrophenyl (DNP) antibody (negative control)
absorbance 490 nm/630 nm [1]: 0.024 OD | absorbance 490 nm/630 nm [2]: 0.02 OD | absorbance 490 nm/630 nm [3]: 0.034 OD | absorbance 490 nm/630 nm [4]: 0.011 OD | absorbance 490 nm/630 nm [5]: 0.023 OD | absorbance 490 nm/630 nm [6]: 0.021 OD | absorbance 490 nm/630 nm [7]: 0.028 OD | absorbance 490 nm/630 nm [8]: 0.017 OD | absorbance 490 nm/630 nm [9]: 0.052 OD | absorbance 490 nm/630 nm [10]: 0.009 OD | absorbance 490 nm/630 nm [11]: 0.065 OD | absorbance 490 nm/630 nm [12]: 0.052 OD | absorbance 490 nm/630 nm [13]: 0.012 OD | absorbance 490 nm/630 nm [14]: 0.008 OD | absorbance 490 nm/630 nm [15]: 0.011 OD | absorbance 490 nm/630 nm [16]: 0.001 OD | absorbance 490 nm/630 nm [17]: 0.012 OD | absorbance 490 nm/630 nm [18]: 0.011 OD | absorbance 490 nm/630 nm [19]: 0.01 OD | absorbance 490 nm/630 nm [20]: 0.008 OD | absorbance 490 nm/630 nm [21]: 0.052 OD | absorbance 490 nm/630 nm [22]: 0.01 OD | absorbance 490 nm/630 nm [23]: 0.057 OD | absorbance 490 nm/630 nm [24]: 0.052 OD | absorbance 490 nm/630 nm [25]: 0.007 OD | absorbance 490 nm/630 nm [26]: 0.017 OD | absorbance 490 nm/630 nm [27]: 0.011 OD | absorbance 490 nm/630 nm [28]: 0.004 OD | absorbance 490 nm/630 nm [29]: 0.054 OD | absorbance 490 nm/630 nm [30]: 0.001 OD | absorbance 490 nm/630 nm [31]: 0.018 OD
